This note sets out measurements from the supplement of paper PMC7125110.

± gives the standard error. Variants at the floor of the assay were thinned out.

The labels stand for the following.
B1: glmS ribozyme (parent)
chain: AUAAAAGCGCCAGAACUACAGAAAUGUAGUUGACGAGGAGGAGGUUUAUCGAAUUUUCGGCGGAUGCCUCCAAA

Conditions in all cases: with glucosamine-6-phosphate
Variants of B1 are the subject of data set [1]. As to the kind of experiment: self-cleavage kobs at 40 uM GlcN6P; higher = faster cleavage; RNA array. Put shortly: (§1)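 Barcoded ribozyme variants, transcribed in situ by E. coli RNA polymerase on sequenced MiSeq chips, were followed via a hybridised Cy3 probe at 37 °C. Glucosamine-6-phosphate ranged from 40 μM to 10 mM in HEPES/KCl/Mg(OAc)2 buffer. kobs came from decay fits to per-tile medians, and kcat and KM from weighted Michaelis–Menten fits.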

The variants in data set [2] derive from B1. As to the kind of experiment: self-cleavage kobs at 10000 uM GlcN6P; higher = faster cleavage; RNA array. Put shortly: as §1
Data set [3] covers variants of B1. As to the kind of experiment: self-cleavage kobs at 640 uM GlcN6P; higher = faster cleavage; RNA array. The method in brief:
as §1

Variants of B1 are the subject of data set [4]. As to the kind of experiment: self-cleavage kobs at 2500 uM GlcN6P; higher = faster cleavage; RNA array. The method in brief:
as §1

Variants of B1 are the subject of data set [5]. As to the kind of experiment: self-cleavage kobs at 160 uM GlcN6P; higher = faster cleavage; RNA array. The method in brief: as §1

On to G37C U55C, for which the “self-cleavage kobs at 40 uM GlcN6P” value with glucosamine-6-phosphate [1] is less than 1e-05 s⁻¹. In the data set with glucosamine-6-phosphate [2], the “self-cleavage kobs at 10000 uM GlcN6P” value is 5.46e-05 ± 9.7e-06 s⁻¹.

As for C50U A64C C67A, in the data set with glucosamine-6-phosphate [1], the “self-cleavage kobs at 40 uM GlcN6P” value is less than 1e-05 s⁻¹. Also, in the data set with glucosamine-6-phosphate [3], the “self-cleavage kobs at 640 uM GlcN6P” value was less than 1e-05 s⁻¹. In the data set with glucosamine-6-phosphate [4], the “self-cleavage kobs at 2500 uM GlcN6P” value was less than 1e-05 s⁻¹.

Take G7U U45C: in the data set with glucosamine-6-phosphate [1], the “self-cleavage kobs at 40 uM GlcN6P” value is less than 1e-05 s⁻¹. In addition, the “self-cleavage kobs at 160 uM GlcN6P” value with glucosamine-6-phosphate [5] is less than 1e-05 s⁻¹. Moreover, in the data set with glucosamine-6-phosphate [3], the “self-cleavage kobs at 640 uM GlcN6P” value is less than 1e-05 s⁻¹. Besides, the “self-cleavage kobs at 2500 uM GlcN6P” value with glucosamine-6-phosphate [4] is less than 1e-05 s⁻¹. In the data set with glucosamine-6-phosphate [2], the “self-cleavage kobs at 10000 uM GlcN6P” value was less than 1e-05 s⁻¹.

For the variant A6C C50A, in the data set with glucosamine-6-phosphate [1], the “self-cleavage kobs at 40 uM GlcN6P” value is less than 1e-05 s⁻¹. The “self-cleavage kobs at 10000 uM GlcN6P” value with glucosamine-6-phosphate [2] was less than 1e-05 s⁻¹.

For the variant A6C A52U C67G, the “self-cleavage kobs at 40 uM GlcN6P” value with glucosamine-6-phosphate [1] was less than 1e-05 s⁻¹.

As to A6G C50G, the “self-cleavage kobs at 40 uM GlcN6P” value with glucosamine-6-phosphate [1] turned out to be 0.000151 ± 3.1e-05 s⁻¹. The “self-cleavage kobs at 160 uM GlcN6P” value in the data set with glucosamine-6-phosphate [5] was 9.76e-05 ± 3.1e-05 s⁻¹. Moreover, in the data set with glucosamine-6-phosphate [3], the “self-cleavage kobs at 640 uM GlcN6P” value was found to be 0.000503 ± 0.00012 s⁻¹. Besides, in the data set with glucosamine-6-phosphate [4], the “self-cleavage kobs at 2500 uM GlcN6P” value amounted to 0.000106 ± 3.4e-05 s⁻¹. For the same variant, the “self-cleavage kobs at 10000 uM GlcN6P” value with glucosamine-6-phosphate [2] is 3.84e-05 ± 1.3e-05 s⁻¹.

Regarding C10A U45G A53G, in the data set with glucosamine-6-phosphate [1], the “self-cleavage kobs at 40 uM GlcN6P” value was less than 1e-05 s⁻¹.

In the case of U49A G62U, in the data set with glucosamine-6-phosphate [1], the “self-cleavage kobs at 40 uM GlcN6P” value is less than 1e-05 s⁻¹. In addition, the “self-cleavage kobs at 10000 uM GlcN6P” value with glucosamine-6-phosphate [2] is less than 1e-05 s⁻¹.

As for A6C A36U G37C G60U, the “self-cleavage kobs at 40 uM GlcN6P” value in the data set with glucosamine-6-phosphate [1] was less than 1e-05 s⁻¹.

U55A G62A: the “self-cleavage kobs at 40 uM GlcN6P” value with glucosamine-6-phosphate [1] was less than 1e-05 s⁻¹. The “self-cleavage kobs at 2500 uM GlcN6P” value with glucosamine-6-phosphate [4] was less than 1e-05 s⁻¹.

For G37A A53G, the “self-cleavage kobs at 40 uM GlcN6P” value with glucosamine-6-phosphate [1] stood at 0.000101 ± 2.3e-05 s⁻¹. For the same variant, the “self-cleavage kobs at 160 uM GlcN6P” value in the data set with glucosamine-6-phosphate [5] stood at 0.000212 ± 3.8e-05 s⁻¹. In addition, the “self-cleavage kobs at 640 uM GlcN6P” value with glucosamine-6-phosphate [3] came to 0.000708 ± 0.00015 s⁻¹. The “self-cleavage kobs at 2500 uM GlcN6P” value with glucosamine-6-phosphate [4] was 0.00163 ± 0.00063 s⁻¹. The “self-cleavage kobs at 10000 uM GlcN6P” value in the data set with glucosamine-6-phosphate [2] was found to be 0.00615 ± 0.0014 s⁻¹.

On to U47A U49C, for which the “self-cleavage kobs at 40 uM GlcN6P” value with glucosamine-6-phosphate [1] is less than 1e-05 s⁻¹. Moreover, the “self-cleavage kobs at 640 uM GlcN6P” value in the data set with glucosamine-6-phosphate [3] is less than 1e-05 s⁻¹. In the data set with glucosamine-6-phosphate [4], the “self-cleavage kobs at 2500 uM GlcN6P” value was less than 1e-05 s⁻¹.

Take A14C G43U: the “self-cleavage kobs at 40 uM GlcN6P” value in the data set with glucosamine-6-phosphate [1] was less than 1e-05 s⁻¹. Further, the “self-cleavage kobs at 160 uM GlcN6P” value with glucosamine-6-phosphate [5] was less than 1e-05 s⁻¹. In addition, in the data set with glucosamine-6-phosphate [3], the “self-cleavage kobs at 640 uM GlcN6P” value is less than 1e-05 s⁻¹. Besides, the “self-cleavage kobs at 2500 uM GlcN6P” value with glucosamine-6-phosphate [4] is less than 1e-05 s⁻¹.

For the variant C11A A36C, the “self-cleavage kobs at 40 uM GlcN6P” value with glucosamine-6-phosphate [1] is less than 1e-05 s⁻¹. For the same variant, the “self-cleavage kobs at 160 uM GlcN6P” value with glucosamine-6-phosphate [5] is less than 1e-05 s⁻¹. Besides, the “self-cleavage kobs at 640 uM GlcN6P” value with glucosamine-6-phosphate [3] was less than 1e-05 s⁻¹. In addition, the “self-cleavage kobs at 2500 uM GlcN6P” value with glucosamine-6-phosphate [4] was less than 1e-05 s⁻¹. The “self-cleavage kobs at 10000 uM GlcN6P” value in the data set with glucosamine-6-phosphate [2] is less than 1e-05 s⁻¹.

For the variant C10G A42C, in the data set with glucosamine-6-phosphate [1], the “self-cleavage kobs at 40 uM GlcN6P” value was less than 1e-05 s⁻¹.

With G7A A39G C58G, the “self-cleavage kobs at 40 uM GlcN6P” value with glucosamine-6-phosphate [1] is less than 1e-05 s⁻¹.

As to G7U C10G A12U U65G C68G, in the data set with glucosamine-6-phosphate [1], the “self-cleavage kobs at 40 uM GlcN6P” value was determined as 7.58e-05 ± 2.2e-05 s⁻¹. In the data set with glucosamine-6-phosphate [2], the “self-cleavage kobs at 10000 uM GlcN6P” value turned out to be 5.57e-05 ± 1.5e-05 s⁻¹.

Consider A39U C68U C71G, for which, in the data set with glucosamine-6-phosphate [1], the “self-cleavage kobs at 40 uM GlcN6P” value is less than 1e-05 s⁻¹. The “self-cleavage kobs at 10000 uM GlcN6P” value with glucosamine-6-phosphate [2] is 4.42e-05 ± 2e-05 s⁻¹.

Take G7U C16G G59A: the “self-cleavage kobs at 40 uM GlcN6P” value with glucosamine-6-phosphate [1] was less than 1e-05 s⁻¹. Moreover, in the data set with glucosamine-6-phosphate [3], the “self-cleavage kobs at 640 uM GlcN6P” value is less than 1e-05 s⁻¹. The “self-cleavage kobs at 10000 uM GlcN6P” value in the data set with glucosamine-6-phosphate [2] is less than 1e-05 s⁻¹.

For the variant C10U A14U C16G, the “self-cleavage kobs at 40 uM GlcN6P” value with glucosamine-6-phosphate [1] is less than 1e-05 s⁻¹.

With G35U G41U C70U, the “self-cleavage kobs at 40 uM GlcN6P” value with glucosamine-6-phosphate [1] was less than 1e-05 s⁻¹. For the same variant, the “self-cleavage kobs at 10000 uM GlcN6P” value in the data set with glucosamine-6-phosphate [2] is less than 1e-05 s⁻¹.

Consider G32U U49G A53C, for which the “self-cleavage kobs at 40 uM GlcN6P” value with glucosamine-6-phosphate [1] is less than 1e-05 s⁻¹.

Take G13C G29U G32A: the “self-cleavage kobs at 40 uM GlcN6P” value with glucosamine-6-phosphate [1] turned out to be 7.61e-05 ± 2.4e-05 s⁻¹. Moreover, in the data set with glucosamine-6-phosphate [2], the “self-cleavage kobs at 10000 uM GlcN6P” value turned out to be 0.00214 ± 0.00069 s⁻¹.

Take U47C G63C: in the data set with glucosamine-6-phosphate [1], the “self-cleavage kobs at 40 uM GlcN6P” value was less than 1e-05 s⁻¹. Further, in the data set with glucosamine-6-phosphate [3], the “self-cleavage kobs at 640 uM GlcN6P” value was less than 1e-05 s⁻¹. The “self-cleavage kobs at 2500 uM GlcN6P” value with glucosamine-6-phosphate [4] was less than 1e-05 s⁻¹. Moreover, in the data set with glucosamine-6-phosphate [2], the “self-cleavage kobs at 10000 uM GlcN6P” value was less than 1e-05 s⁻¹.

Take U31C G35A: the “self-cleavage kobs at 40 uM GlcN6P” value with glucosamine-6-phosphate [1] was less than 1e-05 s⁻¹. Also, in the data set with glucosamine-6-phosphate [5], the “self-cleavage kobs at 160 uM GlcN6P” value was less than 1e-05 s⁻¹. Further, in the data set with glucosamine-6-phosphate [3], the “self-cleavage kobs at 640 uM GlcN6P” value is less than 1e-05 s⁻¹. For the same variant, the “self-cleavage kobs at 2500 uM GlcN6P” value with glucosamine-6-phosphate [4] was less than 1e-05 s⁻¹. Further, the “self-cleavage kobs at 10000 uM GlcN6P” value in the data set with glucosamine-6-phosphate [2] is less than 1e-05 s⁻¹.
